# Source: patent publication US12338268B2, “Compositions and methods for treating protein aggregation-associated diseases” (The Board of Trustees of the Leland Stanford Junior …, priority 2019, dated 2025)
# “Also recorded” adds a separate entry of the source.
# B1: human NAC: purified recombinant human nascent polypeptide-associated complex (αNAC and βNAC 1:1) (protein)
# chain 1: MTGSTETRQKEVKEPQVDVSDDSDNEAVEQELTEEQRRVAEAAGLGDHIDKQAKQSRSEKKARKLFSKLGLKQVTGVSRVCIRKSKNILFVINKPDVFKSPGSDTYIIFGEAKIEDLTQHAQMSAIENLKPTREAPQLKTVEEDENEDVEEDSTGIEEKDIELVISQANTTRNKAIRALKEADNDIVNAIMSLTM
# chain 2: MMDSKAIAERIKKLQAQQEHVRIGGKGTPRRKKKVIHKTAAADDKKLQSNLKKLSVTNIPGIEEVNMIKDDGTVIHFNNPKVQTSVPANTFSVTGSADNKQITEMLPGILNQLGPESLTHLKKLANNVTKLGPDGKGEDEDVPELVGDFDAASKNETKADEQ
# B2: ApiCCT1-bNAC: fusion protein comprising the apical domain of CCT1 fused with the bNAC N-terminal sequence at its C-terminus (protein)
# chain: MGVPGYALNCTVASQAMPKRIAGGNVKIACLDLNLQKARMAMGVQINIDDPEQLEQIRKREAGIVLERVKKIIDAGAQVVLTTKGIDDLCLKEFVEAKIMGVRRCKKEDLRRIARATGATLVSSMSNLEGEETFESSYLGLCDEVVQAKFSDDECILIKGTSKAAAAALEGGSGGSMKETIMNQEKLAKLQAQVRIGGKGTARRKKKVVHRTAT
# What was measured:
# [1] = system: PolyQ51; test: In vitro filter trap aggregation assay of PolyQ51; assay type: biochemical; conditions: 5× molar excess, SDS-insoluble aggregates
# Method: (§1) Mutant Huntingtin and PolyQ51 aggregation reactions were performed at concentration 3 μM of mHttQ51, 0.044 Units/μl acTEV protease (Invitrogen, Carlsbad, CA, USA), and respective concentrations of Ovalbumin (Sigma) or purified NAC chaperone variants. Aggregation was conducted in TEV reaction buffer (Invitrogen) and incubated at 30° C. AtxQ78 was buffer exchanged into TEV reaction buffer using 7K MWCO Zeba Spin Desalting Columns (Thermo Fisher) to initiate aggregation. AtxQ78 aggregation reactions were performed at 30 μM of Ataxin-3 in reaction buffer (20 mM sodium phosphate pH 7.5, 25 mM NaCl, 6 mM MgCl2, 2 mM DTT, 5% (v/v) glycerol) and incubated at 37° C. Samples at varied time-points were then taken and combined in a 1:1 ratio with a 4% (w/v) SDS, 100 mM DTT solution, boiled for 5 min at 95° C., and stored at −20° C. Samples were then filtered through a 0.22 μm cellulose acetate membrane (Whatman) and washed with 0.1% (w/v) SDS. Membrane was probed using an S-tag antibody (Abcam) for mHttQ51 and PolyQ51, and with a His-tag antibody (Abcam) for AtxQ78.
# [2] = target: T1, mutant Huntingtin exon 1 (mHttQ51) (Homo sapiens, UniProt P42858, INS38QQQQQQQQQQQQQQQQQQQQQQQQQQQQQQQ); test: In vitro filter trap aggregation assay of mutant Huntingtin exon 1; assay type: biochemical
# T1 construct: mutant Huntingtin exon 1 containing a pathogenic stretch of 51 glutamines (mHttQ51); GST (N, cleaved yes); made in house; host or cells: E. coli Rosetta 2(DE3) pLysS
# T1 sequence (P42858 with tags, fused parts or gaps with the stated changes limits assumed): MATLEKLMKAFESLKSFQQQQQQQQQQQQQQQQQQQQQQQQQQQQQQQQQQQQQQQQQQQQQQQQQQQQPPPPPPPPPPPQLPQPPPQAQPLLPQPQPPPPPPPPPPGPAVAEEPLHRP
# Method: as §1
# [3] = target: T2, full-length Ataxin-3 (AtxQ78) (Homo sapiens, UniProt P54252, INS305QQQQQQQQQQQQQQQQQQQQQQQQQQQQQQQQQQQQQQQQQQQQQQQQQQQQQQQQQQQQQQQQ); test: Filter trap aggregation assay of AtxQ78; assay type: biochemical; conditions: equimolar (1×) NAC, 37° C.
# T2 construct: full-length Ataxin-3 harboring a stretch of 78 glutamines (AtxQ78); made in house
# T2 sequence (P54252 with tags, fused parts or gaps with the stated changes): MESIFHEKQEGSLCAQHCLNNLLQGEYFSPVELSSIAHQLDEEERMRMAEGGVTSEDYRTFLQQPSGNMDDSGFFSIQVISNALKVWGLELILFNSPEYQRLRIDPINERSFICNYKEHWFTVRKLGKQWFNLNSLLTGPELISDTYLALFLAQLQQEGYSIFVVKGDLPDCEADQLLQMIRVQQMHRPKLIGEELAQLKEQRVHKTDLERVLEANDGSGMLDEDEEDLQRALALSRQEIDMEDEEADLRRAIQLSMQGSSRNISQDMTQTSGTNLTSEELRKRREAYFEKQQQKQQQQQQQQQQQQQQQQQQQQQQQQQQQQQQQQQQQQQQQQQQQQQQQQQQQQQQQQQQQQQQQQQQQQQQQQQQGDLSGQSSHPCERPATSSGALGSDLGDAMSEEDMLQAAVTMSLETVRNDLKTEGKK
# Method: as §1
# [4] = target: T3, AtxQ78 (Homo sapiens, UniProt P54252, INS305QQQQQQQQQQQQQQQQQQQQQQQQQQQQQQQQQQQQQQQQQQQQQQQQQQQQQQQQQQQQQQQQ); test: Chemical crosslinking (BS3) and mass spectrometry of NAC-AtxQ78 complexes; assay type: binding; conditions: NAC and AtxQ78 1:1, BS3 crosslinker, LC-MS
# T3 construct: full-length Ataxin-3 harboring a stretch of 78 glutamines (AtxQ78); made in house
# T3 sequence (P54252 with tags, fused parts or gaps with the stated changes): as the sequence (P54252 with tags, fused parts or gaps with the stated changes) above
# Method: For crosslinking AtxQ78 was buffer exchanged into 10 mM sodium phosphate (pH 7.2) and added to NAC at a 1:1 ratio (20 μM NAC+20 μM AtxQ78). A 1:1 mixture of BS^3-d^0 and BS^3-d^4 was added to the proteins at 20× and 50× molar excess and the reaction allowed to proceed at room temperature for 1 hour before quenching with the addition of 50 mM Tris-Cl (pH 7.5). Samples were diluted with 2× loading buffer and separated on Tris-tricine gels followed by staining with InstantBlue (Expedeon).
# Gel pieces containing the crosslinked complexes were washed with 25 mM ammonium bicarbonate (pH 7.8) for 1 h with shaking. The solution was removed and the pieces destained three times with 25 mM ammonium bicarbonate in 60% acetonitrile. Gel pieces were dehydrated with 100% acetonitrile for 10 min and left to air-dry in a laminar flowhood for 1 h. Rehydration of the gel pieces was achieved by adding 0.1 mg/ml trypsin solution and incubating the samples on ice for 30 min. Excess trypsin was removed and the samples were incubated at 37° C. and 1000 rpm overnight. Peptides were extracted from the gel using 3 washes with 60% acetonitrile/5% formic acid. The extracts were pooled and concentrated using a SpeedVac before being analyzed using a nanoACQUITY LC-system coupled to a Synapt HDMS G2Si mass spectrometer. […]
# [5] = target: GdmCl-denatured firefly luciferase (Photinus pyralis, UniProt P08659); test: Luciferase refolding assay; assay type: biochemical
# Sequence of GdmCl-denatured firefly luciferase (P08659 whole entry): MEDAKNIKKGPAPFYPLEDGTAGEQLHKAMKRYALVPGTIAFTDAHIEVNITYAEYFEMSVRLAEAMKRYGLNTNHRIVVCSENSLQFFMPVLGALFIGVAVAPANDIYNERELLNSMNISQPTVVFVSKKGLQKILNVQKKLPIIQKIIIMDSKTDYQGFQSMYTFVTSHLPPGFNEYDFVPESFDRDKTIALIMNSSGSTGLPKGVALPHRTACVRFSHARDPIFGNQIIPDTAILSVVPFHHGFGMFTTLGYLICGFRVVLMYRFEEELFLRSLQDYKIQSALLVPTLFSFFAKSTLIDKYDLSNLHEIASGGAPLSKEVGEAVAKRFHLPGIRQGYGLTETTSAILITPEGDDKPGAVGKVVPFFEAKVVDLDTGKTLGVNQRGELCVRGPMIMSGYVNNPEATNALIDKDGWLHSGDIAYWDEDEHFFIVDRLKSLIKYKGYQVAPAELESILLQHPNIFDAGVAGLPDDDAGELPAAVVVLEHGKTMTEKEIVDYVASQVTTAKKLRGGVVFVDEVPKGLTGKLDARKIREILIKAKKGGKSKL
# [6] = target: T4, Aβ40 (Homo sapiens, UniProt P05067); test: Thioflavin T fluorescence assay of Aβ40 aggregation; assay type: biochemical; conditions: equimolar NAC variant and Aβ40 (32 μM FIG. 4C; 18 μM FIG. 12C), 37° C., 20 h
# T4 construct: Aβ40 peptide was expressed and purified as described previously; made in house; host or cells: E. coli BL21 (DE3)
# Method: Lyophilized Aβ40 was resuspended at 320 μM in 20 mM sodium phosphate pH 7.4, 0.2 mM EDTA, 0.01% (w/v) sodium azide and stored on ice. The NAC proteins were diluted to 100 μM in storage buffer (20 mM sodium phosphate pH 7.5, 25 mM NaCl, 6 mM MgCl2, 2 mM β-mercaptoethanol, 5% (v/v) glycerol) and buffer exchanged into 20 mM sodium phosphate pH 7.4, 0.2 mM EDTA, 0.01% (w/v) sodium azide, 1× complete mini protease inhibitor, EDTA free (Roche) by means of ZebaSpin 7 kDa MWCO spin columns (Thermo Scientific). Samples were prepared that contained equimolar concentrations of Aβ40 and NAC variants. Thioflavin T was added to a final concentration of 10 μM. The samples were transferred to a 96 well half-area clear bottom microplate (Corning GmbH, Wiesbaden, Germany), with 95 μL of sample in each well. The fluorescence (excitation: 440 nm, emission: 480 nm) was measured using a BMG Omega plate reader (BMG Labtech) incubating samples at 37° C., quiescently.
# [7] = target: T4, Aβ40; test: Transmission electron microscopy of Aβ40 reaction endpoint; assay type: biochemical; conditions: reaction endpoint at 20 h, equimolar NAC
# Method: After 20 h, samples were taken from the Thioflavin T plate and fixed on carbon coated copper grids, made in house. The samples were negative stained with 2% (w/v) uranyl acetate. The samples were imaged on a JEOL 1400 TEM at the Astbury structural biology laboratory, University of Leeds.
# [8] = system: HttQ44-BodipyTMR; test: Fluorescence quenching assay of HttQ44-BodipyTMR aggregation; assay type: biochemical; conditions: titrations of chaperones, 24-hour time period
# Sequence of HttQ44-BodipyTMR (P42858 with tags, fused parts or gaps with the stated changes limits assumed): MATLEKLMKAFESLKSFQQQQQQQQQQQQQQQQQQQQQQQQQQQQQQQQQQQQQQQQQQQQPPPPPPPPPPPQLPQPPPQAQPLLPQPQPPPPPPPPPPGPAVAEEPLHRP
# From the text: FIGS. 17A-17B show a fluorescence quenching assay as a reporter for early events in Htt aggregation.
# A fluorescence quenching assay was used to monitor aggregation of HttQ44-BodipyTMR with titrations of various chaperones over a 24-hour time period.
Molecule,accumulation of PolyQ51 aggregates [1],"mHttQ51 aggregation ([2]; 5× molar excess, 3 μM mHttQ51, filter trap, SDS-insoluble aggregates)",AtxQ78 aggregation [3],identified intermolecular crosslinks to the C-terminal region of AtxQ78 close to the expanded PolyQ stretch [4],"luciferase refolding ([5]; NAC added to the Hsp70/Hsp40 system (3.2 μM/0.8 μM), no preincubation)","luciferase refolding ([5]; NAC alone, absence of Hsp70/Hsp40, luciferase 0.02 μM, equimolar NAC)",Aβ40 aggregation (ThT fluorescence) [6],Aβ40 fibril formation (electron microscopy) [7],"HttQ51 aggregation, titration ([2]; ApiCCT1-bNAC from 15 μM to 0.03 μM, Htt 3 μM, filter trap)","polyQ aggregation of huntingtin exon1 ([2]; system with purified components, listed as fused protein)",Htt aggregation over time (fluorescence quenching) [8]
B1,strongly delayed the accumulation of PolyQ51 aggregates,effectively suppressed aggregation,delayed the aggregation of AtxQ78,11 out of 18,did not enhance luciferase refolding,had no effect on luciferase refolding,completely suppressed Aβ40 aggregation,completely suppressed Aβ40 aggregation and fibril formation,–,–,–
B2,–,–,–,–,–,–,–,–,can suppress HttQ51 aggregation at sub-molar concentrations,works even more potently to inhibit huntingtin exon1 aggregation; also recorded: can suppress aggregation even at sub-molar ratios,better and more stably suppresses Htt aggregation overtime compared to the ApiCCT1 and bNAC N-terminal domain individually
